Data published in the supplement of paper PMC10567573.

B1: PPP2R2B (parent)
chain: RNTKRDVTLEASRENSKPRAILKP

Variants of: B1
Assay: protein stability index of a GFP-peptide fusion (GPS, HEK-293T) (PSI 1-6); higher = more stable
Details: c terminus: a fixed tail appended
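Note: lentivirally expressed fusions sorted by FACS into six bins by GFP to DsRed ratio, PSI derived from sequencing read proportions per bin multiplied by bin number.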

Variant | protein stability index
RNTKRDVTLEASRENSKPRAILQP [K23Q] | 4.89
RNTKRDVTLEASRENSKPRAILHP [K23H] | 4.57
RNTKRDVTLEASRENSKPRAILRP [K23R] | 4.04
RNTKRDVTLEASRENSKPRAILFP [K23F] | 3.48
RNTKRDVTLEASRENSKPRAILSP [K23S] | 4.56
RNTKRDVTLEASRENSKPRAILWP [K23W] | 4.33
RNTKRDVTLEASRENSKPRAILCP [K23C] | 4.25
RNTKRDVTLEASRENSKPRAILPP [K23P] | 4.5
RNTKRDVTLEASRENSKPRAILVP [K23V] | 4.31
RNTKRDVTLEASRENSKPRAILNP [K23N] | 4.18
RNTKRDVTLEASRENSKPRAILEP [K23E] | 4.5
RNTKRDVTLEASRENSKPRAILTP [K23T] | 4.67
RNTKRDVTLEASRENSKPRAILGP [K23G] | 4.48
RNTKRDVTLEASRENSKPRAILDP [K23D] | 4.79
RNTKRDVTLEASRENSKPRAILIP [K23I] | 4.04
RNTKRDVTLEASRENSKPRAILMP [K23M] | 3.94
RNTKRDVTLEASRENSKPRAILYP [K23Y] | 4.38
RNTKRDVTLEASRENSKPRAILLP [K23L] | 3.91
RNTKRDVTLEASRENSKPRAILAP [K23A] | 4.5
RNTKRDVTLEASRENSKPTAILKP [R19T] | 4.52
RNTKRDVTLEASRENSKPCAILKP [R19C] | 4.69
RNTKRDVTLEASRENSKPHAILKP [R19H] | 4.46
RNTKRDVTLEASRENSKPSAILKP [R19S] | 4.41
RNTKRDVTLEASRENSKPKAILKP [R19K] | 4.7

Variant | protein stability index
RNTKRDVTLEASRENSKPVAILKP [R19V] | 4.72
RNTKRDVTLEASRENSKPQAILKP [R19Q] | 4.75
RNTKRDVTLEASRENSKPLAILKP [R19L] | 4.7
RNTKRDVTLEASRENSKPNAILKP [R19N] | 4.7
RNTKRDVTLEASRENSKPMAILKP [R19M] | 4.44
RNTKRDVTLEASRENSKPPAILKP [R19P] | 4.79
RNTKRDVTLEASRENSKPYAILKP [R19Y] | 4.21
RNTKRDVTLEASRENSKPGAILKP [R19G] | 4.86
RNTKRDVTLEASRENSKPDAILKP [R19D] | 4.86
RNTKRDVTLEASRENSKPEAILKP [R19E] | 5.04
RNTKRDVTLEASRENSKPAAILKP [R19A] | 4.2
RNTKRDVTLEASRENSKPIAILKP [R19I] | 4.39
RNTKRDVTLEASRENSKPFAILKP [R19F] | 4.12
RNTKRDVTLEASRENSKPWAILKP [R19W] | 3.98
RNTKRDVTLEASRENSKPRAQLKP [I21Q] | 4.8
RNTKRDVTLEASRENSKPRAYLKP [I21Y] | 4.5
RNTKRDVTLEASRENSKPRARLKP [I21R] | 5.35
RNTKRDVTLEASRENSKPRAPLKP [I21P] | 5.15
RNTKRDVTLEASRENSKPRALLKP [I21L] | 4.68
RNTKRDVTLEASRENSKPRANLKP [I21N] | 4.68
RNTKRDVTLEASRENSKPRAELKP [I21E] | 5.34
RNTKRDVTLEASRENSKPRAFLKP [I21F] | 4.3
RNTKRDVTLEASRENSKPRAALKP [I21A] | 4.8
RNTKRDVTLEASRENSKPRAMLKP [I21M] | 4.67

Variant | protein stability index
RNTKRDVTLEASRENSKPRATLKP [I21T] | 4.5
RNTKRDVTLEASRENSKPRAVLKP [I21V] | 4.6
RNTKRDVTLEASRENSKPRAKLKP [I21K] | 4.83
RNTKRDVTLEASRENSKPRACLKP [I21C] | 4.85
RNTKRDVTLEASRENSKPRADLKP [I21D] | 5.3
RNTKRDVTLEASRENSKPRASLKP [I21S] | 4.78
RNTKRDVTLEASRENSKPRAWLKP [I21W] | 4.7
RNTKRDVTLEASRENSKPRAHLKP [I21H] | 4.52
RNTKRDVTLEASRENSKPRAGLKP [I21G] | 4.99
RNTKRDVTLEASRENSKPRRILKP [A20R] | 4.66
RNTKRDVTLEASRENSKPRLILKP [A20L] | 4.19
RNTKRDVTLEASRENSKPRVILKP [A20V] | 4.38
RNTKRDVTLEASRENSKPRFILKP [A20F] | 4.03
RNTKRDVTLEASRENSKPRSILKP [A20S] | 4.48
RNTKRDVTLEASRENSKPRPILKP [A20P] | 4.3
RNTKRDVTLEASRENSKPRKILKP [A20K] | 5.04
RNTKRDVTLEASRENSKPREILKP [A20E] | 5
RNTKRDVTLEASRENSKPRCILKP [A20C] | 4.17
RNTKRDVTLEASRENSKPRWILKP [A20W] | 3.3
RNTKRDVTLEASRENSKPRYILKP [A20Y] | 4.1
RNTKRDVTLEASRENSKPRDILKP [A20D] | 4.64
RNTKRDVTLEASRENSKPRTILKP [A20T] | 4.49
RNTKRDVTLEASRENSKPRHILKP [A20H] | 4.85
RNTKRDVTLEASRENSKPRGILKP [A20G] | 4.39

Variant | protein stability index
RNTKRDVTLEASRENSKPRNILKP [A20N] | 4.64
RNTKRDVTLEASRENSKPRQILKP [A20Q] | 4.44
RNTKRDVTLEASRENSKPRIILKP [A20I] | 4.32
RNTKRDVTLEASRENSKPRMILKP [A20M] | 4.65
RNTKRDVTLEASREWSKPRAILKP [N15W] | 3.77
RNTKRDVTLEASREYSKPRAILKP [N15Y] | 4.09
RNTKRDVTLEASRERSKPRAILKP [N15R] | 4.22
RNTKRDVTLEASREVSKPRAILKP [N15V] | 4.45
RNTKRDVTLEASRESSKPRAILKP [N15S] | 4.85
RNTKRDVTLEASRETSKPRAILKP [N15T] | 4.49
RNTKRDVTLEASRENSKPRAILKM [P24M] | 4.06
RNTKRDVTLEASRENSKPRAILKN [P24N] | 4.82
RNTKRDVTLEASRENSKPRAILKR [P24R] | 4.13
RNTKRDVTLEASRENSKPRAILKV [P24V] | 4
RNTKRDVTLEASRENSKPRAILKY [P24Y] | 3.58
RNTKRDVTLEASRENSKPRAILKW [P24W] | 3.55
RNTKRDVTLEASRENSKPRAILKT [P24T] | 4.88
RNTKRDVTLEASRENSKPRAILKE [P24E] | 4.74
RNTKRDVTLEASRENSKPRAILKK [P24K] | 4.26
RNTKRDVTLEASRENSKPRAILKA [P24A] | 4.74
RNTKRDVTLEASRENSKPRAILKD [P24D] | 3.69
RNTKRDVTLEASRENSKPRAILKL [P24L] | 4
